In article PMC5458393, “Crystal structure of N-acetylmannosamine kinase from Fusobacterium nucleatum” (Acta Crystallographica. Section F, Structural Biology …, 2017):

Molecular target: the molecule itself
Assay: crystal structure; apo FnNanK at 14 mg/ml; sitting-drop vapour diffusion, 293 K; 0.2 M lithium sulfate, 0.1 M Tris-HCl pH 8.5, 30% PEG 4000; 2.23 A; one homodimer in the asymmetric unit

B1: Fusobacterium nucleatum N-acetylmannosamine kinase (enzyme, F. nucleatum)
chain: ITSLYKKAGFMNILAIDIGGTMIKYGLVSFDGKILSTDKIKTEASKGLNNILNKIDNIFKRYKENNPVGIAVSGTGQINGMIGKVIGGNPIIPNWIGTNLVKILEEKYNLPIVLENDVNCVALGEKWVGAGKDLSNFICLTIGTGIGGGILLNNQLFRGENFVAGEFGHILIKKGEFEQFASTTALIRLVKERTGKTLNGKEIFDLEKKEILEYQEIISEWIENLTDGLSSIIYCFNPANIILGGGVIEQGEPLINRIKNSLFKKIGPQFKEKLNITQAKLGNNAGMIGASYLLLEKINKR
notes: N-acetylmannosamine kinase (NanK; EC 2.7.1.60) of Fusobacterium nucleatum, synthetic gene; primers run from the start codon to the stop codon; The tag was not removed; also called FnNanK; F. nucleatum NanK; source: E. coli BL21(DE3), purified (HisTrap FF, Superdex 200 size-exclusion); not shown: His6, N-terminal, kept
B1 was tested, and the “stoichiometry N” value was 2.
